In IntAct's records for PubMed 31515488:

B1: ADP-ribosylation factor-like protein 11 (Homo sapiens), Q969Q4 (parent)
chain: MGSVNSRGHKAEAQVVMMGLDSAGKTTLLYKLKGHQLVETLPTVGFNVEPLKAPGHVSLTLWDVGGQAPLRASWKDYLEGTDILVYVLDSTDEARLPESAAELTEVLNDPNMAGVPFLVLANKQEAPDALPLLKIRNRLSLERFQDHCWELRGCSALTGEGLPEALQSLWSLLKSRSCMCLQARAHGAERGDSKRS
partner: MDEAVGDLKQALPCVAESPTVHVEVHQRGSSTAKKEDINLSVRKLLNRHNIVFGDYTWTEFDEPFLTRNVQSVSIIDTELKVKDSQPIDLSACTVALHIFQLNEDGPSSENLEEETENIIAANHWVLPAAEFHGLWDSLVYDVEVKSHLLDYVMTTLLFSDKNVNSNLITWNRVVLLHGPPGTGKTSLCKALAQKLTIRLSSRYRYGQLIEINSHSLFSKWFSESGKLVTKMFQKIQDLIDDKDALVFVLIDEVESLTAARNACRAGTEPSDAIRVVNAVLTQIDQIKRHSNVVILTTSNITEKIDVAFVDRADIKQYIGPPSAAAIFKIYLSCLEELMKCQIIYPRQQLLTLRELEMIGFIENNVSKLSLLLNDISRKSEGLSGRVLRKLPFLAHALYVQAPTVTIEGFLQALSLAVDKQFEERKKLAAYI
B2: Leucine rich adaptor protein 1 (Homo sapiens), Q96LR2 (parent)
chain: MEGTVESQTPDLRDVEGKVGRKTPEGLLRGLRGECELGTSGALLLPGASSTGHDLGDKIMALKMELAYLRAIDVKILQQLVTLNEGIEAVRWLLEERGTLTSHCSSLTSSQYSLTGGSPGRSRRGSWDSLPDTSTTDRLDSVSIGSFLDTVAPSELDEQGPPGAPRSEMDWAKVIAGGERARTEVDVAATRLGSLRAVWKPPGERLQGGPPESPEDESAKLGFEAHWFWEQCQDDVTFL
partner: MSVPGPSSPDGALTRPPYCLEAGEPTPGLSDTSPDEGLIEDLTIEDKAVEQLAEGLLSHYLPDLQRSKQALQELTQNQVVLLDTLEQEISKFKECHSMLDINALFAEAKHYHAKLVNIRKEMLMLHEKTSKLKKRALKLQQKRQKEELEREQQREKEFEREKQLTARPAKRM
B3: NADPH-dependent diflavin oxidoreductase 1 (Homo sapiens), Q9UHB4 (parent)
chain: MPSPQLLVLFGSQTGTAQDVSERLGREARRRRLGCRVQALDSYPVVNLINEPLVIFVCATTGQGDPPDNMKNFWRFIFRKNLPSTALCQMDFAVLGLGDSSYAKFNFVAKKLHRRLLQLGGSALLPVCLGDDQHELGPDAAVDPWLRDLWDRVLGLYPPPPGLTEIPPGVPLPSKFTLLFLQEAPSTGSEGQRVAHPGSQEPPSESKPFLAPMISNQRVTGPSHFQDVRLIEFDILGSGISFAAGDVVLIQPSNSAAHVQRFCQVLGLDPDQLFMLQPREPDVSSPTRLPQPCSMRHLVSHYLDIASVPRRSFFELLACLSLHELEREKLLEFSSAQGQEELFEYCNRPRRTILEVLCDFPHTAAAIPPDYLLDLIPVIRPRAFSIASSLLTHPSRLQILVAVVQFQTRLKEPRRGLCSSWLASLDPGQGPVRVPLWVRPGSLAFPETPDTPVIMVGPGTGVAPFRAAIQERVAQGQTGNFLFFGCRWRDQDFYWEAEWQELEKRDCLTLIPAFSREQEQKVYVQHRLRELGSLVWELLDRQGAYFYLAGNAKSMPADVSEALMSIFQEEGGLCSPDAAAYLARLQQTRRFQTETWA
B4: EF-hand domain-containing protein 1 (Homo sapiens), Q5JVL4 (parent)
chain: MVSNPVHGLPFLPGTSFKDSTKTAFHRSQTLSYRNGYAIVRRPTVGIGGDRLQFNQLSQAELDELASKAPVLTYGQPKQAPPADFIPAHVAFDKKVLKFDAYFQEDVPMSTEEQYRIRQVNIYYYLEDDSMSVIEPVVENSGILQGKLIKRQRLAKNDRGDHYHWKDLNRGINITIYGKTFRVVDCDQFTQVFLESQGIELNPPEKMALDPYTELRKQPLRKYVTPSDFDQLKQFLTFDKQVLRFYAIWDDTDSMYGECRTYIIHYYLMDDTVEIREVHERNDGRDPFPLLMNRQRVPKVLVENAKNFPQCVLEISDQEVLEWYTAKDFIVGKSLTILGRTFFIYDCDPFTRRYYKEKFGITDLPRIDVSKREPPPVKQELPPYNGFGLVEDSAQNCFALIPKAPKKDVIKMLVNDNKVLRYLAVLESPIPEDKDRRFVFSYFLATDMISIFEPPVRNSGIIGGKYLGRTKVVKPYSTVDNPVYYGPSDFFIGAVIEVFGHRFIILDTDEYVLKYMESNAAQYSPEALASIQNHVRKREAPAPEAESKQTEKDPGVQELEALIDTIQKQLKDHSCKDNIREAFQIYDKEASGYVDRDMFFKICESLNVPVDDSLVKELIRMCSHGEGKINYYNFVRAFSN
B5: Caspase recruitment domain-containing protein 9 (Homo sapiens), Q9H257 (parent)
chain: MSDYENDDECWSVLEGFRVTLTSVIDPSRITPYLRQCKVLNPDDEEQVLSDPNLVIRKRKVGVLLDILQRTGHKGYVAFLESLELYYPQLYKKVTGKEPARVFSMIIDASGESGLTQLLMTEVMKLQKKVQDLTALLSSKDDFIKELRVKDSLLRKHQERVQRLKEECEAGSRELKRCKEENYDLAMRLAHQSEEKGAALMRNRDLQLEIDQLKHSLMKAEDDCKVERKHTLKLRHAMEQRPSQELLWELQQEKALLQARVQELEASVQEGKLDRSSPYIQVLEEDWRQALRDHQEQANTIFSLRKDLRQGEARRLRCMEEKEMFELQCLALRKDSKMYKDRIEAILLQMEEVAIERDQAIATREELHAQHARGLQEKDALRKQVRELGEKADELQLQVFQCEAQLLAVEGRLRRQQLETLVLSSDLEDGSPRRSQELSLPQDLEDTQLSDKGCLAGGGSPKQPFAALHQEQVLRNPHDAGLSSGEPPEKERRRLKESFENYRRKRALRKMQKGWRQGEEDRENTTGSDNTDTEGS
partner: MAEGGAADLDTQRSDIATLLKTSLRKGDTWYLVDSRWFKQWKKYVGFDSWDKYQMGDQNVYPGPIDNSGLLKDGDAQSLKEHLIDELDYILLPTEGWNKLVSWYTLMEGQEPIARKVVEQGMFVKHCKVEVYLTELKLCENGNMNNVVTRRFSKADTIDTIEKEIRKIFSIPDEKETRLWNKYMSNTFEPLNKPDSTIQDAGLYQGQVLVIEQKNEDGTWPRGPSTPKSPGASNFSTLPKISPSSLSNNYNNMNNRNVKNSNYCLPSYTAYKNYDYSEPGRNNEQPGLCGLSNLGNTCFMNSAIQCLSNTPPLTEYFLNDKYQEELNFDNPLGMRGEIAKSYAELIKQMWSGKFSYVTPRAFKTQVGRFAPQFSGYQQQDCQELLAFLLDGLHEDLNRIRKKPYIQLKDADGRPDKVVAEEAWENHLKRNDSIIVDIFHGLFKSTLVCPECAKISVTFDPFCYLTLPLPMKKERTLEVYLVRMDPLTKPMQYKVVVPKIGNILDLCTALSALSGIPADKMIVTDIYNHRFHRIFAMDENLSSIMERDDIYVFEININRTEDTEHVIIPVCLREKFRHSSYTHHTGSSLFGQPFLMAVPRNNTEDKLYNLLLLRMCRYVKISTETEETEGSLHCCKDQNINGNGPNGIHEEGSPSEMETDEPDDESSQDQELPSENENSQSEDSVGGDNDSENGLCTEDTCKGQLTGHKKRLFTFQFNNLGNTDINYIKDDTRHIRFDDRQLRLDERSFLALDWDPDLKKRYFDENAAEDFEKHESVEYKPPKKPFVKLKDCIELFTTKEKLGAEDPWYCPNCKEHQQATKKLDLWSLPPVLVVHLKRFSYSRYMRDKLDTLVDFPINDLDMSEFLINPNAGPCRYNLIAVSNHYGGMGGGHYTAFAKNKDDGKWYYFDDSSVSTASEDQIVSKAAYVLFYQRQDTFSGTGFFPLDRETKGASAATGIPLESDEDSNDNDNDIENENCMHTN
B6: Zinc finger protein 581 (Homo sapiens), Q9P0T4 (parent)
chain: MLVLPSPCPQPLAFSSVETMEGPPRRTCRSPEPGPSSSIGSPQASSPPRPNHYLLIDTQGVPYTVLVDEESQREPGASGAPGQKKCYSCPVCSRVFEYMSYLQRHSITHSEVKPFECDICGKAFKRASHLARHHSIHLAGGGRPHGCPLCPRRFRDAGELAQHSRVHSGERPFQCPHCPRRFMEQNTLQKHTRWKHP
B7: Pleckstrin homology domain-containing family N member 1 (Homo sapiens), Q494U1 (parent)
chain: MGNSHCVPQAPRRLRASFSRKPSLKGNREDSARMSAGLPGPEAARSGDAAANKLFHYIPGTDILDLENQRENLEQPFLSVFKKGRRRVPVRNLGKVVHYAKVQLRFQHSQDVSDCYLELFPAHLYFQAHGSEGLTFQGLLPLTELSVCPLEGSREHAFQITGPLPAPLLVLCPSRAELDRWLYHLEKQTALLGGPRRCHSAPPQRRLTRLRTASGHEPGGSAVCASRVKLQHLPAQEQWDRLLVLYPTSLAIFSEELDGLCFKGELPLRAVHINLEEKEKQIRSFLIEGPLINTIRVVCASYEDYGHWLLCLRAVTHREGAPPLPGAESFPGSQVMGSGRGSLSSGGQTSWDSGCLAPPSTRTSHSLPESSVPSTVGCSSQHTPDQANSDRASIGRRRTELRRSGSSRSPGSKARAEGRGPVTPLHLDLTQLHRLSLESSPDAPDHTSETSHSPLYADPYTPPATSHRRVTDVRGLEEFLSAMQSARGPTPSSPLPSVPVSVPASDPRSCSSGPAGPYLLSKKGALQSRAAQRHRGSAKDGGPQPPDAPQLVSSAREGSPEPWLPLTDGRSPRRSRDPGYDHLWDETLSSSHQKCPQLGGPEASGGLVQWI
B8: Testis-specific protein 10-interacting protein (Homo sapiens), Q3SY00 (parent)
chain: MGQDTDMLNTYQQLVRTPSVRPGQDVRLQAPGTRTGLLKLLSTVSQDKQGCLGSGDGVPNQDLQQRSQSSRQTAKKDRKPRGQSKKGQGSEESEDHFPLLPRKPSFPFQWAWESIATDVRAVLQPSSPTPGHQALPMPSSFSQRQSRRKSTANLPEAHGCCWKTEAQNLKARQQLGAWGGVSIPTGKGELGSEPPSGLQLPGRRPGSGSASDKQVQLQSLGAEEAERGLSSGVLPQRPRRGSISEEEQFSEATEEAEEGEHRTPCRRRAGCQRKGQISGEEASDEGEVQGQSQGSSPSFNNLRRRQWRKTRAKELQGPWDLEKLHRQLQRDLDCGPQKLPWKTLRAAFQASKRNGKAYASGYDETFVSANLPNRTFHKRQEATRSLLQAWERQRQEERQQAELRRARTQHVQRQVAHCLAAYAPRGSRGPGAAQRKLEELRRQERQRFAEYQAELQGIQHRVQARPFLFQQAMQANARLTVTRRFSQVLSALGLDEEQLLSEAGKVDREGTPRKPRSHRSMGVRMEHSPQRPPRTEPTGSQPDRHYNPSLDPECSP

Variants of: B1
Settings: with pch2_human TRIP13, Q15645

effect of a mutation on the interaction	Variant
with no effect	C148R

Variants of: B2
Settings: with bl1s6_human BLOC1S6, Q9UL45

effect of a mutation on the interaction	Variant
disrupting interaction strength	Q207R

Variants of: B3
Settings: with mtus2_human MTUS2, Q5JR59
Target sequence in this assay (Q5JR59 whole entry): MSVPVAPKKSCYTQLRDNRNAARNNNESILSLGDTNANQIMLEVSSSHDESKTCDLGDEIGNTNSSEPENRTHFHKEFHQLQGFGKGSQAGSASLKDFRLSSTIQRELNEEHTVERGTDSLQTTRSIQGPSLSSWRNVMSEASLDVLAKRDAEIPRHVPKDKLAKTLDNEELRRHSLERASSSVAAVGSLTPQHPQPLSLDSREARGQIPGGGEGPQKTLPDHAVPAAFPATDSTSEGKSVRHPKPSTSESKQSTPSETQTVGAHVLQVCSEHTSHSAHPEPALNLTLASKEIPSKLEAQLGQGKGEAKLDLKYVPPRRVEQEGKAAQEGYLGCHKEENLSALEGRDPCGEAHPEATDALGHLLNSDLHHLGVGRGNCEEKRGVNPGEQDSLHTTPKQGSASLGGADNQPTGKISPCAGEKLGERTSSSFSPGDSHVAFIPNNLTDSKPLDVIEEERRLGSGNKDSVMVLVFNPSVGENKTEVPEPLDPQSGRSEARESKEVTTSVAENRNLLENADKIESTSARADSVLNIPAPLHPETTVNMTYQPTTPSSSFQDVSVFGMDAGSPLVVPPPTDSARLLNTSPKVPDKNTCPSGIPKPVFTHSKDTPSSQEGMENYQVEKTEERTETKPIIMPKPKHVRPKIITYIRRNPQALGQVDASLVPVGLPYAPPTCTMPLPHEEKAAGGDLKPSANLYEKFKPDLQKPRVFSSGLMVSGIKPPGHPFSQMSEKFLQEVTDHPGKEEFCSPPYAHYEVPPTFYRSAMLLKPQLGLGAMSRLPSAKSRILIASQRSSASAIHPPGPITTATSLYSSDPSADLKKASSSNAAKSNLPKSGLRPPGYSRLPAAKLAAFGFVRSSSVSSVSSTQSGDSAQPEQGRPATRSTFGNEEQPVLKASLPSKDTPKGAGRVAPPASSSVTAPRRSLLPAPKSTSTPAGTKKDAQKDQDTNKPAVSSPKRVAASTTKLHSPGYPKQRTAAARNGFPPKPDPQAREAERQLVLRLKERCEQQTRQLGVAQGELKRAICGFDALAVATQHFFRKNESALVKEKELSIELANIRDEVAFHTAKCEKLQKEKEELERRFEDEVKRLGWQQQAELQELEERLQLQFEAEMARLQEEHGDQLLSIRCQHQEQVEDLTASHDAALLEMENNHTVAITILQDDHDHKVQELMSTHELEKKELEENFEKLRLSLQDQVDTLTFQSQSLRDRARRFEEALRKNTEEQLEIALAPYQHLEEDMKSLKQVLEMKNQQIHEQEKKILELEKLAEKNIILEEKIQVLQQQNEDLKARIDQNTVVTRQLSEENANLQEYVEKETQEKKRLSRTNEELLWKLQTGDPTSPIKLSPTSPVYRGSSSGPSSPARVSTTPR

effect of a mutation on the interaction	Variant
with no effect	P281L

Variants of: B3
Settings: with ccd33_human CCDC33, Q8N5R6

effect of a mutation on the interaction	Variant
with no effect	V153I

Variants of: B3
Settings: with cpin1_human CIAPIN1, Q6FI81

effect of a mutation on the interaction	Variant
with no effect	V153I

Variants of: B3
Settings: with itf2_human TCF4, P15884
Target sequence in this assay (P15884 whole entry): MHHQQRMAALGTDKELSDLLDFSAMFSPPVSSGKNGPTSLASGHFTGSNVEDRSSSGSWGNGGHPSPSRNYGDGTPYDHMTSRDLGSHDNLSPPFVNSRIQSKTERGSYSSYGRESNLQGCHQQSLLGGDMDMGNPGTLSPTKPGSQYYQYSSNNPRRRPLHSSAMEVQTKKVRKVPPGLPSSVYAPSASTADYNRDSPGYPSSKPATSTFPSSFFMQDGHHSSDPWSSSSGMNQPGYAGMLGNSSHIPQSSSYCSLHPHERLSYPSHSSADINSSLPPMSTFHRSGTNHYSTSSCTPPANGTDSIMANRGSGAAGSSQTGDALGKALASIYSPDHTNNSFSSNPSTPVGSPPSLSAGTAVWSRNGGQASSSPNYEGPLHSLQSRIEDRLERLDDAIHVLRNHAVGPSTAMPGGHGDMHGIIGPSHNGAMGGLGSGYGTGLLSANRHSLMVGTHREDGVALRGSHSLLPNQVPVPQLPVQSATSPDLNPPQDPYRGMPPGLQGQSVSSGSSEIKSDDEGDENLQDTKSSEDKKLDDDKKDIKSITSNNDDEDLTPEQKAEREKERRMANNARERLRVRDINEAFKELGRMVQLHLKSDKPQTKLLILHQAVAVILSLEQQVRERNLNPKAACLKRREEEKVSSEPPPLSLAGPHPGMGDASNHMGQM

effect of a mutation on the interaction	Variant
with no effect	V153I

Variants of: B4
Settings: with itf2_human TCF4, P15884
Target sequence in this assay (P15884 whole entry): as above

effect of a mutation on the interaction	Variant
with no effect	R159W
with no effect	Y102C
with no effect	F229L

Variants of: B4
Settings: with ikzf3_human IKZF3, Q9UKT9
Sequence of ikzf3_human IKZF3, Q9UKT9 (Q9UKT9 whole entry): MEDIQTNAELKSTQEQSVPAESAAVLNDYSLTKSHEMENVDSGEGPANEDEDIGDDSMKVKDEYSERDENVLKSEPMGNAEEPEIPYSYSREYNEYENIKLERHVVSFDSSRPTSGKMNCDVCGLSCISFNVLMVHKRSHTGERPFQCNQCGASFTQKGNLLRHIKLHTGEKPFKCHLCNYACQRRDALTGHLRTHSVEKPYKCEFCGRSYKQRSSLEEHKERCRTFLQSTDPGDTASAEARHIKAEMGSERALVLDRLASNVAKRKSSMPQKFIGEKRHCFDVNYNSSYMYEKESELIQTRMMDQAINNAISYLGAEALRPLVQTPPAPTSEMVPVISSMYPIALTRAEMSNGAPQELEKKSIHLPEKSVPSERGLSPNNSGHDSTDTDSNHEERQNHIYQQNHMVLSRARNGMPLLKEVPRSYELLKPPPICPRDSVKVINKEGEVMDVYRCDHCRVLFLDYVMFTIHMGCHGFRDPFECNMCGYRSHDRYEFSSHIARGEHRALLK

effect of a mutation on the interaction	Variant
with no effect	R159W
with no effect	Y102C
with no effect	F229L

Variants of: B5
Settings: with ubp15_human USP15, Q9Y4E8

effect of a mutation on the interaction	Variant
disrupting interaction strength	V385L

Variants of: B6
Settings: with cc136_human CCDC136, Q96JN2
Sequence of cc136_human CCDC136, Q96JN2 (Q96JN2 whole entry): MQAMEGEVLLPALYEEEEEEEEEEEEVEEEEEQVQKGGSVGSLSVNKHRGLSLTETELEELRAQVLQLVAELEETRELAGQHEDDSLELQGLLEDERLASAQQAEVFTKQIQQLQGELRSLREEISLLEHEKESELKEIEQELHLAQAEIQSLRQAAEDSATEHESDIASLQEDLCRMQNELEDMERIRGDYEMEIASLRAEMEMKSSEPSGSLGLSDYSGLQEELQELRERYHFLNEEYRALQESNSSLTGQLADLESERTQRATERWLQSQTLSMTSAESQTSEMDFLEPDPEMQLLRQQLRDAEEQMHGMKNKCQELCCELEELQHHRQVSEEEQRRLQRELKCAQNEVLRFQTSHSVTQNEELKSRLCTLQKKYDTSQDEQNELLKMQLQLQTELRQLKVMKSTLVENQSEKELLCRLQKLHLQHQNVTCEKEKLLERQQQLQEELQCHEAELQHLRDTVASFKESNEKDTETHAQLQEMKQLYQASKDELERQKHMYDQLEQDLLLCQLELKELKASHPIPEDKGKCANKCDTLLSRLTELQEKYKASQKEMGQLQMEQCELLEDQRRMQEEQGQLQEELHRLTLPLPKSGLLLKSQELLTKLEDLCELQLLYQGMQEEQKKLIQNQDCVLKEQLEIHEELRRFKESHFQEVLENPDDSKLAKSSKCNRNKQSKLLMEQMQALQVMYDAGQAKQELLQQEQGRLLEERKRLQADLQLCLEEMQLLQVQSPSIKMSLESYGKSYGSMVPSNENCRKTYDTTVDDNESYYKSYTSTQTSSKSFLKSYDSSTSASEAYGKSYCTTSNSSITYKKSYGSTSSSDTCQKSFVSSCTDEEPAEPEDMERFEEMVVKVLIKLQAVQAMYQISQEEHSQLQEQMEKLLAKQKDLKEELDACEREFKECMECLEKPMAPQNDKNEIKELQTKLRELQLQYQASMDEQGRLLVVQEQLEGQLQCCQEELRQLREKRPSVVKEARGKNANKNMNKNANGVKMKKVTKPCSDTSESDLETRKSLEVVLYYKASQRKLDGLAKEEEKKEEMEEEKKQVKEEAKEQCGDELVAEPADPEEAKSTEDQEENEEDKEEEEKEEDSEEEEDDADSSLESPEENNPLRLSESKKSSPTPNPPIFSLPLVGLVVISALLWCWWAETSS

effect of a mutation on the interaction	Variant
with no effect	R143W
with no effect	E32A

Variants of: B6
Settings: with mtus2_human MTUS2, Q5JR59
Target sequence in this assay (Q5JR59 whole entry): as the sequence (Q5JR59 whole entry) above

effect of a mutation on the interaction	Variant
with no effect	R143W
with no effect	E32A

Variants of: B6
Settings: with tri23_human TRIM23, P36406
Sequence of tri23_human TRIM23, P36406 (P36406 whole entry): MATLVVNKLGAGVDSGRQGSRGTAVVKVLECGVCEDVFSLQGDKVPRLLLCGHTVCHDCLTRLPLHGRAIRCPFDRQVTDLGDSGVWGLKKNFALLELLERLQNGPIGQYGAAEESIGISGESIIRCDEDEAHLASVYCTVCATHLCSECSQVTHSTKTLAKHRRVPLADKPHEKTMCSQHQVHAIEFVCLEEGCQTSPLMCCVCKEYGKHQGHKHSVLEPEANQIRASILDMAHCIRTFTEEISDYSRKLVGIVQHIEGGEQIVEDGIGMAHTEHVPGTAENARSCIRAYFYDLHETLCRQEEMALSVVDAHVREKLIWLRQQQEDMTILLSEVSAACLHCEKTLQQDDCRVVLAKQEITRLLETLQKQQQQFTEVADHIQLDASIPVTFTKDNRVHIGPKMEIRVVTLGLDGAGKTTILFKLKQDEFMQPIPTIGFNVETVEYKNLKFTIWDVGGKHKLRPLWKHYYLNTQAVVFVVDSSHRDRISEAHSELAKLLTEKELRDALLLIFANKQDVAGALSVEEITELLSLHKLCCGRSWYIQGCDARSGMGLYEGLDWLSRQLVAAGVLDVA

effect of a mutation on the interaction	Variant
with no effect	R143W
with no effect	E32A

Variants of: B7
Settings: with itf2_human TCF4, P15884
Target sequence in this assay (P15884 whole entry): as the sequence (P15884 whole entry) above

effect of a mutation on the interaction	Variant
with no effect	R487P

Variants of: B7
Settings: with traf1_human TRAF1, Q13077

effect of a mutation on the interaction	Variant
with no effect	R487P

Variants of: B7
Settings: with taxb1_human TAX1BP1, Q86VP1

effect of a mutation on the interaction	Variant
with no effect	R487P

Variants of: B8
Settings: with cep70_human CEP70, Q8NHQ1
Sequence of cep70_human CEP70, Q8NHQ1 (Q8NHQ1 whole entry): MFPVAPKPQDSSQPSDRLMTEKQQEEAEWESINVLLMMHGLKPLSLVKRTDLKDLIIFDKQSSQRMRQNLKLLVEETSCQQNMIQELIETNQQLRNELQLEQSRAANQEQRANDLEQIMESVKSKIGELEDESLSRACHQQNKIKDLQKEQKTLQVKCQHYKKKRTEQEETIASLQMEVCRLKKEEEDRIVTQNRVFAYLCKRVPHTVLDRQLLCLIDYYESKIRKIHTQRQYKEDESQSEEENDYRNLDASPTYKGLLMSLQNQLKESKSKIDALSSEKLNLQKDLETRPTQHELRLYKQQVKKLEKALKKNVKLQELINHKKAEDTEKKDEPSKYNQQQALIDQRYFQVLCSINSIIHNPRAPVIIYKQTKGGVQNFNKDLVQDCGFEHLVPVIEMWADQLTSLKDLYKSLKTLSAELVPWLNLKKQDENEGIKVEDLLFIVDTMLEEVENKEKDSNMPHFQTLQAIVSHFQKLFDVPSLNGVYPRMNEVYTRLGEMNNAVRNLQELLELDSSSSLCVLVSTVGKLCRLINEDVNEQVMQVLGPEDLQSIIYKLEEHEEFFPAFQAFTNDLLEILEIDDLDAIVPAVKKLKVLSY

effect of a mutation on the interaction	Variant
with no effect	A210V
with no effect	S242L

Variants of: B8
Settings: with mtus2_human MTUS2, Q5JR59
Target sequence in this assay (Q5JR59 whole entry): as the sequence (Q5JR59 whole entry) above

effect of a mutation on the interaction	Variant
with no effect	R237S
with no effect	D25E
with no effect	S242L
with no effect	R305P
